Assays:
[1] = system: cartilage cells; settings: intra-articular administration, Nakazawa et al. 2002; cited from earlier work
[2] = system: thioglycolate-induced peritoneal macrophages; experiment: Flow cytometry reactivity of antibody with peritoneal macrophages; assay type: binding, Lewis rats; settings: Lewis rat peritoneal macrophages, co-stained anti-CD11b/c
Description: (§1) After the end of reaction, stainability was measured using a flow cytometer. […], 3% thioglycolate was intraperitoneally administered to Lewis rats, and peritoneal macrophages were collected 4 days later. The negative control antibody or the 4A67 antibody was added to the macrophages adjusted to 1×10^5 for the same reaction as above, followed by further adding an anti-CD11b/c antibody labeled with phycoerythrin or the negative control antibody labeled with phycoerythrin for reaction. After the reaction, stainability was measured using a flow cytometer.

[3] = system: rat FR-β-expressing B300-19; experiment: Flow cytometry reactivity of antibody with FR-β-expressing B300-19 cells; assay type: binding; settings: 1×10^5 cells, APC-labeled anti-mouse IgM
Description: The resultant hybridomas were cloned by limiting dilution culture adjusted to 1 cell per well of a 96-well plate. The cloned cells were sorted by reactivity with FR-β-expressing cells. The isotype of the mouse monoclonal antibodies was determined using a mouse immunoglobulin isotyping ELISA kit (Pharmingen). As a result, the mouse anti-rat FR-β monoclonal antibodies obtained were IgM-type clone 4A67. The reactivity of these antibodies to the antigen was analyzed by flow cytometry.
as §1

C[C@H]1C[C@@H]2[C@H]([C@@H](O)C[C@@]3(C)[C@H]2CC[C@]3(O)C(=O)CO)[C@@]2(C)C=CC(=O)C=C12 [Steroid, methylprednisolone]
apoptotic death of cartilage cells [1]: causes the apoptotic death of cartilage cells

B1: 4A67: IgM-type mouse anti-rat FR-β monoclonal antibody (antibody, V domains shown)
VH: QIQLVQSGPELKKPGETVKISCKASGYTFTNYGMNWVKQAPGKGLKWMGWINTYTGEPTYTDDFKGRFAFSLETSASTAYLQINNLKNEDMATYFCARKGAMDYWGQGTSVTVSS
VL: QIVLTQSPAIMSASPGEKVTMTCSASSSVSYMHWYQQKSGTSPKRWIYDTSKLASGVPARFSGSGSGTSYSLTISSMEAEDAATYYCQQWSSNPPTFGSGTKLEIK
reactivity with thioglycolate-induced peritoneal macrophages [2]: reacts | reactivity with rat FR-β-expressing B300-19 [3]: reacts

From patent US20140242073A1, “CARTILAGE/BONE DESTRUCTION SUPPRESSOR” (priority 2011, published 2014)
